Laboratory results: patent publication US20230287087A1

Biological target: Spike protein of patient-derived SARS-CoV-2 (D614G) (SARS-CoV-2) (UniProt P0DTC2)
Assay: cell-based or functional assay

VHH-72 ColXVIII trimer
neutralization by the trimer against the monomer: 10000 fold

VHH-72 monomer
partial neutralization: 170 nM
